Results as given in publication PMC6145371.

Target: tau repeat domain (TauRD) conjugated to cerulean fluorescent protein (CFP) or yellow fluorescent protein (YFP)
Assay: FRET or BRET; HEK293 biosensor cells with TauRD-CFP and TauRD-YFP; samples holding tau seeds (rTg4510 brain lysate 12 h, cell or microglia lysate 36 h, microglia conditioned media 72 h) added with 1% Lipofectamine; CFP to YFP FRET read by flow cytometry as integrated FRET density, normalised to cells given Lipofectamine only

normalized integrated FRET density (cells given rTg4510 microglia lysate) (normalized IFD): 308 | normalized integrated FRET density (cells given rTg4510 non-microglia cell lysate) (normalized IFD): 3570
Substance: tau repeat domain (TauRD) conjugated to cerulean fluorescent protein (CFP) or yellow fluorescent protein (YFP)
